Patent publication US20080248026

Test system: T1, purified murine β-catenin protein
T1 sequence: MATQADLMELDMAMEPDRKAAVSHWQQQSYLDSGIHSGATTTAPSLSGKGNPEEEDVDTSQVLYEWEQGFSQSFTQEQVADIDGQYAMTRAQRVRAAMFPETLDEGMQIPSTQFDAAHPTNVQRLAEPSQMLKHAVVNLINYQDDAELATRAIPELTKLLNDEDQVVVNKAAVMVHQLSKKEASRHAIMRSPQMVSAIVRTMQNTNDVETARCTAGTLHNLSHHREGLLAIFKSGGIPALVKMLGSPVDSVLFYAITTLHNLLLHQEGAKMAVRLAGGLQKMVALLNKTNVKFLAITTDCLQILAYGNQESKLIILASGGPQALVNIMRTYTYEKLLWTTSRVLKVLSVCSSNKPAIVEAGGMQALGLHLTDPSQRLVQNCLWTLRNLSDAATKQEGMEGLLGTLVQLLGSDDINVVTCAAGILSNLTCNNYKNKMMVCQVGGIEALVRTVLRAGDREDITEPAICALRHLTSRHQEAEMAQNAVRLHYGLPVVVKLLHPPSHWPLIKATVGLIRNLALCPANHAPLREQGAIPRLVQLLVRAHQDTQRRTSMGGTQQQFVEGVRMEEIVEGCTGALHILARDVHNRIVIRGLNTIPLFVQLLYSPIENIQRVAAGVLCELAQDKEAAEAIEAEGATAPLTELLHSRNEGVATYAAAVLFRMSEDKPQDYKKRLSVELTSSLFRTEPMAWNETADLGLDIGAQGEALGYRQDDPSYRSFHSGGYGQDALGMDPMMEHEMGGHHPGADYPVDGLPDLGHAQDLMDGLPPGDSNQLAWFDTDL

Akt (Cell Signaling)
in vitro phosphorylation; collision induced dissociation spectrum of the peptide spanning Ser^552 (loss of the 98 Da H3PO4 group): indicating that this peptide (shown in FIG. 5C) is phosphorylated by Akt
